Results published in the nanobody polyreactivity screen of Harvey et al. (2022).

Assay: yeast display, Sf9 membrane polyspecificity reagent, FACS + sequencing; frameworks hold sequencing errors
How it was run: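 Galactose induction of a Saccharomyces cerevisiae BJ5465 synthetic nanobody display library ran 36–48 hours. The cells were then stained for 1 hour at 4 °C with 10% biotinylated, detergent-solubilized Sf9 membrane reagent, pulled down on streptavidin microbeads and FACS-sorted into low and high (top ~1%) gates on expression and reagent-binding fluorescence. Labels for polyreactivity follow the gate of origin.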

Row | Sequence | polyreactivity (PSR sort gate)
1 | QVQLVESGGGLVQAGGSLRLSCAASGFIFPYYDMGWYRQAPGKEREFVAAITKSGGRTYYADSVKGRFTISRDNAKNTVYLQMNSLKPEDTAVYYCNADDPDYLVSYRYDYWGQGTQVTVSS | low polyreactivity
2 | QVQLVESGGGLVQAGGSLRLSCAASGFIFPYYDMGWYRQAPGTERELVAAISWSGDSTYYADSVKGRFTISRDNAKNTVYLQMNSLKPEDTAVYYCNVRARYQRYYYWGQGTQVTVSS | high polyreactivity
3 | QVQLVESGGGLVQAGGSLRLSCAASGFIFQEYVMGWYRQAPGKERELVAAISRSGGRTYYADSVKGRFTISRDNAKNTVYLQMNSLKPEDTAVYYCAATYTKSHGVRYYHWGQGTQVTVSS | high polyreactivity
4 | QVQLVESGGGLVQAGGSLRLSCAASGFIFQGYAMGWYRQAHGKEREFVAAITTSGGTTYYADSVKGSFTISRDNAKNTVYLQKNSLKPEDTAVYYCAARGATVSTRIYGYWGQGPQVTVSS | high polyreactivity
5 | QVQLVESGGGLVQAGGSLRLSCAASGFIFQPYALGWYRQAPGKERELDASITLRGGSTYYADSVKGRFTISRDNAKNTVYLQMNSLKPEDTAVYYCAARIYQYWGGHYDYWGQGTQVTVSS | high polyreactivity
6 | QVQLVESGGGLVQAGGSLRLSCAASGFIFQPYAMGWYRPAPGKERELVAGITGSGGNTYYADSVKGRFTISRDNAKNTVYLQMNSLKPEDTAVYYCAARRHIFLLIIWSGRVDYWGQGTEVTVSS | low polyreactivity
7 | QVQLVESGGGLVQAGGSLRLSCAASGFIFQSYAMGWYRQAPGKERELVASISASGGSTYYADSVKGRFTISRDNAKNTVYLQMNSLKPEDTAVYYCAAGYWSYWSLRMDYWGQGTQVTVSS | high polyreactivity
8 | QVQLVESGGGLVQAGGSLRLSCAASGFIFQVYAMGWYRQAPGKERELVASISSSGGSTYYADSVKGRFTISRDNAKNTVYLQMNSLKPEDTAVYYCAVEQRYRYWYRYRYKFLLDSDYWGQGTQVTVSS | high polyreactivity
9 | QVQLVESGGGLVQAGGSLRLSCAASGFIFQYNTMGWYRQAPGKERELVAVITRTGSTNYADSVKGRFTISRDNGKNTVYLQMNSLQPEDTAVYYCATSVYSRPRKPRYYYWGQGTQVTVSS | high polyreactivity
10 | QVQLVESGGGLVQAGGSLRLSCAASGFIFQYYAMGWYRQAPGKERELVAAINRGGGTHYADSVKGRFTISRDNAKNTVYLQMNSLKPEDTAVYYCNKVYYWPGSRPSRYEYWGQGTQVTVSS | low polyreactivity
11 | QVQLVESGGGLVQAGGSLRLSCAASGFIFQYYAMGWYRQAPGKERELVAAISWRSTSTYYADSVKGRFTISRDNAKNTVYLQMNSLKPEDTAVYYCAASPGFSIGYEYWGQGTQVTVSS | low polyreactivity
12 | QVQLVESGGGLVQAGGSLRLSCAASGFIFQYYAMGWYRQAPGKERELVAAITPSGTSTYYADSVKGRFTISRDNAKNTVYLQMNSLKPEDTAVYYCAAYYRYASDYWGQGTQVTVSS | low polyreactivity
13 | QVQLVESGGGLVQAGGSLRLSCAASGFIFRAYAMGWYRQAPGKERELVAAISGSGGSTYYADTVKGRFTISRDNAMNTVDLQMNSLKPEDTAVYYCNKYVGYYAYNYNYWGQGTQVTVSS | high polyreactivity
14 | QVQLVESGGGLVQAGGSLRLSCAASGFIFRAYVMGWYRQAPGKERELVAAISYRGGSTNYADSVKGRFTISRDTAKNTVYLHMNSLKPEDTAVYYCAADQVHKREYDYWGQGTQVTVSS | low polyreactivity
15 | QVQLVESGGGLVQAGGSLRLSCAASGFIFRDYDMGWYRQAPGKERELVPAISWRGGTYYADSVKGRFTISRDNAKNTVYLQMNSLKPEDTAVYYCNATRYRLRPSGVRYKYNYWGQGTQVTVSS | low polyreactivity
16 | QVQLVESGGGLVQAGGSLRLSCAASGFIFRFNALGWYRQAPGKERELVAAISGSGGITYYADSVKGRFTISRDNAKNTVYLQMNSLKPEDTAVYYCAAGTGKRSVRFDYWGQGTQVTVSS | high polyreactivity
17 | QVQLVESGGGLVQAGGSLRLSCAASGFIFRFNAMGWYRQAPGKERELVAGITWSGGSTYYADSVKGRFTISRDNAKNTVYLQMNSLKPEDTAVYYCDADNPYLGRKFDYWGQGTQVTVSS | high polyreactivity
18 | QVQLVESGGGLVQAGGSLRLSCAASGFIFRGYAMGWYRQAPGKERELVAAINSGGSTNYADSVKGRFTISRDNAKNTVYLQMNSLKPEDTAVYYCAARVKTSYRYLRTYNYWGQGTQVTVSS | high polyreactivity
19 | QVQLVESGGGLVQAGGSLRLSCAASGFIFRGYAMGWYRQAPGKERELVAAITSSGGDTYYADSVKGRFTISRDNAKNTVYLQMNSLKPEDSAVYYCAKRARRIGDVNMGSWGQGSQVTVSS | low polyreactivity
20 | QVQLVESGGGLVQAGGSLRLSCAASGFIFRHYAMGWYRQSPGKAREMVAVINWSGSSTYYADSVKGRFTISRDNEKNTVFLQMNSLKPEDTAVYYCAVRSLRVDKYGYWGLGTQVTVSS | high polyreactivity
21 | QVQLVESGGGLVQAGGSLRLSCAASGFIFRLYAMGWYRQAPGKERELVAAISTGGGRTYYADSVKGRFTFSGDNAKNTVYLQMNSLKPEDTADYDCNTLVEPHYDYWGQGTQVTVSS | high polyreactivity
22 | QVQLVESGGGLVQAGGSLRLSCAASGFIFRLYAMGWYRQAPGKERELVAAITWSGGSTYYADSVKGRFTISRDNAKNTVYLQMNSLKPEDTAVYYCAAYATKNAFEYWGQGTQVTVSS | high polyreactivity

Row | Sequence | polyreactivity (PSR sort gate)
23 | QVQLVESGGGLVQAGGSLRLSCAASGFIFRNYAMGWYRQAPGKERELVAAIDSSGGSTYYADSVKGRFTISRDNAKNTVYLQMNSLKPEDTAVYYCAAESYYYQYEYWGQGTQVTVSS | high polyreactivity
24 | QVQLVESGGGLVQAGGSLRLSCAASGFIFRRNAMGWYRQAPGKERELVAAISAGGTSTYYADSVKGRFTISRDNAKNTVYLQMNSLKPEDTAVYYCNKAYYYDAEYDYWGQGTQVTVSS | high polyreactivity
25 | QVQLVESGGGLVQAGGSLRLSCAASGFIFRRNAMGWYRQAPGKERELVAAISRTGGSTYYADCVKGRFTISRDNAKNTDYLQMNSLKPEDTAVYYCARYGLVYALGYWGQGTQVTVSS | high polyreactivity
26 | QVQLVESGGGLVQAGGSLRLSCAASGFIFRRYALGWYRQAPGKERELVAAISWGGTSTYYADSVKGRFTISRDNAKNTVYLQMNSLKPVDTAGYYCAADRSVRTRGGFDYWGQGTQVTVSS | high polyreactivity
27 | QVQLVESGGGLVQAGGSLRLSCAASGFIFRRYAMGWYRQAPGKERELVAAIRSDGSTNYADSVKGRFTISRDNAKNTVYLQMNSLKPEDTAVYDCAATYYSYTWFSQYYYWGQGTQVTVSS | high polyreactivity
28 | QVQLVESGGGLVQAGGSLRLSCAASGFIFRRYAMGWYRQAPGKERELVAAITSSGTSTYYADSVKGRFTISRDNAKNTVYLQMNSLKPEDTAVYYCNAAQYYERFNHWGQGTQVTVSS | high polyreactivity
29 | QVQLVESGGGLVQAGGSLRLSCAASGFIFRRYVMGWYRQAPGKERELVAAISYGGGSTYYADSVKGRFTISRDNAKNTVYLQMNSLKPEDTAVYYCAARVYYDAYDYWGQGTQVTVSS | high polyreactivity
30 | QVQLVESGGGLVQAGGSLRLSCAASGFIFRSYAMGWYRQAPGKERELVAAINSRAGNTYYADSVKGRFTISRDNAKNTVYLQINSLKPEDNAVYYCNAVRHTYGYYSWGQGTQVTVSS | high polyreactivity
31 | QVQLVESGGGLVQAGGSLRLSCAASGFIFRTYAMGWYRQAPRKERELVAAITYSAGSTYYADSVKGRFTISRDNAKNTVYLQMNSLKPEDTAVYYCNVRKTWYGYSVTGRYDYWGQGTQVTVSS | low polyreactivity
32 | QVQLVESGGGLVQAGGSLRLSCAASGFIFRWYAMGWYRQAPGKERELVAANSSGSSTTYADSVKGRFTISRDNAKNTVYLQMNSLKPEDTAVYYCNRGPRIYRYQYDYWGQGTQVTVSS | high polyreactivity
33 | QVQLVESGGGLVQAGGSLRLSCAASGFIFRWYAMGWYRQAPGKERELVASIDSSGTRTYYADSVKGRFTISRDNAKNTVYLQMNSLKPEDTAVYYCNAEPSSLGETDYDYWGQGTQVTVSS | low polyreactivity
34 | QVQLVESGGGLVQAGGSLRLSCAASGFIFRWYTMGWYRQAPGKERELVAAISSSGGTTYYADSVKGRFTISRDNAKNTVYLQMNSLKPEDTAVYYCTTRYPLGGTYTRYPLKGDYWGQGTQVTVSS | high polyreactivity
35 | QVQLVESGGGLVQAGGSLRLSCAASGFIFRYFAMGWYRQAPGKERELVAAISRSGGSTYYADSVKGRFTISRDNAKNTVYLQMNSLKPEDTAVYYCAAKDGRSYYDLSPMDYWGQGSQVTVSS | low polyreactivity
36 | QVQLVESGGGLVQAGGSLRLSCAASGFIFRYNAMGWNRQAPGKERELVARINSGVSTNYADSVKGRFTISRDNAKNTVYLQMNSLKPEDTAVYYCNARVRRGYSRFDYWGQGTQVTVSS | high polyreactivity
37 | QVQLVESGGGLVQAGGSLRLSCAASGFIFRYNAMGWYRQAPGKERELVAAISSGGSTNYADSVKGRFTISRDNAKNTVYLQMNSLKPEDTAVYYCAADVEQYYPLLTFDFWGQGTQVTVSS | low polyreactivity
38 | QVQLVESGGGLVQAGGSLRLSCAASGFIFRYNAMGWYRQAPGKERELVAAISSSGGSTYYADSVKGRFTISRDNAKNTVYVQMNSLKPEDTAVDYCNAYNYGYIGYGYNYWGQGTQVTVSS | high polyreactivity
39 | QVQLVESGGGLVQAGGSLRLSCAASGFIFRYNAMGWYRQAPGKERELVASISYSGARTYYADSVKGRFTISRDNEKNTVYLQMNSLKPEDTAVYYCATGPLSYVRYYYWGQGTQVTVSS | low polyreactivity
40 | QVQLVESGGGLVQAGGSLRLSCAASGFIFRYNTMGWYRQPPGKERELVAAISVSGARTYYADSVKGRFTLSRDNAKNTVYLQMNSLKPEDTAVYYCNRRYPLYSRYNNDYWGQGTQVTVSS | high polyreactivity
41 | QVQLVESGGGLVQAGGSLRLSCAASGFIFRYYAKGWYREAPGKERELVAAITSGGASTYYADSVKGRFRISRDNAKNTVYLQMNSLKPEDTPVYYCAADTSSYSEYDYWGQGTQVTVSS | low polyreactivity
42 | QVQLVESGGGLVQAGGSLRLSCAASGFIFRYYAMGWYIQAPWKERELVAAIRRGRSTYYADSVKGRFTISRDNAKYTVYLQMNSLKPEDTAVDYCAVRLVSRFGISSYDYWGQGTQVTVSS | high polyreactivity
43 | QVQLVESGGGLVQAGGSLRLSCAASGFIFRYYAMGWYRPAPGKERELVATISSGGGTHYADSVKGRFTISRDNAKNTVYLQMNSLKPEDAAVYYCNARGYRRLRTRVDYWGQGTQVTVSS | high polyreactivity
